# Assay results taken from the nanobody polyreactivity screen of Harvey et al. (2022).
# Test: yeast display, Sf9 membrane polyspecificity reagent, FACS + sequencing; frameworks hold sequencing errors
# How it was run: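 Sorting gates, low and high (top ~1%), were placed on anti-HA fluorescence to track expression and on streptavidin fluorescence to track reagent binding. A clone's polyreactivity label is taken from the gate it came out of. The reagent was 10% biotinylated, detergent-solubilized Sf9 membrane, applied for 1 hour at 4 °C to galactose-induced yeast display cells.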
row,Sequence,polyreactivity (PSR sort gate)
1,QVQLVESGGGLVQAGGSLRLSCAASGSIFAPNAMGWYRHAPGKERELVAAISRSGGRTYYADSVKGRFTISRDNAKNTVYLQMNSLKPEDTAVYYCAADYKHQRTYGSWGQGTQVTVSS,high polyreactivity
2,QVQLVESGGGLVQAGGSLRLSCAASGSIFAPNAMGWYRQAPRKEREFVAGITQSGTSTYADSVKGRFTISRDNAKNTVYLQMNSLKPEDTAVYYCAAEYYYGYWYGYIISYDYWGQGTQVTVSS,high polyreactivity
3,QVQLVESGGGLVQAGGSLRLSCAASGSIFARYAMGWYRQAPGKERELVAAITSGGITNYADSVKGRFTISRDNAKNTVYLQKNSLKPEDTAVYYCAARRSGRVRYDYWGQGTQVTVSS,high polyreactivity
4,QVQLVESGGGLVQAGGSLRLSCAASGSIFARYAMGWYRQAPGKERELVAAITYSGGSTYYADSVKGRFTISRYNAKNTVYLQMNSLKPEDTAVYYCALRSGYGRWYPYDYWGQGTQVTVSS,high polyreactivity
5,QVQLVESGGGLVQAGGSLRLSCAASGSIFASNAMGWYRQAPGKEREFVAAIYWSGTRTYYADSVKGRFTISRDNAKNTVYLQLKSLKPEDTAVYYCAALTVLRNDYWGQGTQVSVSS,low polyreactivity
6,QVQLVESGGGLVQAGGSLRLSCAASGSIFASNAMGWYRQAPGKERELVAAIDDDGSTDYADSVKGRFTISRDNAKNTVYLQMNSLKPEDTAVYYCAVVTFWWGWTKYRGGFYWGQGTQVTVSS,low polyreactivity
7,QVQLVESGGGLVQAGGSLRLSCAASGSIFASNAMGWYRQAPGKQWELVAAINSGTRTKYADSVKGRFTISRDNAKNTVYLQMNSRKPEDTAVYYCAARFKGERGPAHYYWGQGTQVTVSS,high polyreactivity
8,QVQLVESGGGLVQAGGSLRLSCAASGSIFATNAMGWYRQAPGKERELGASSSSGGGSTYYADSVKGRFTISRDNAKNTVYLQLNSLKPEDTADSYCARRIGPGSRPSWLETWRYPYDYWGQGTQVTVSS,low polyreactivity
9,QVQLVESGGGLVQAGGSLRLSCAASGSIFATYAMGWYRQAPGKERELVAAISRSGGSTNYADSVKGRFTISRDNAKNTVYLQMNSLKPEDTAVYYCAAVRPHWYGQGWALYWFEYWGQGTQVTVSS,low polyreactivity
10,QVQLVESGGGLVQAGGSLRLSCAASGSIFATYAMGWYRQAPGKERELVADISWNGGSTYYADSVKGRFTISRDNAKNTVYLQMNSLKPEDTAVYYCAVGYWGRFGFRGYGYWGQGTQVTVSS,low polyreactivity
11,QVQLVESGGGLVQAGGSLRLSCAASGSIFAVNAMGWYRQAPGKERELVAAISFGGGDTYYADSVKGRFTISRDNAKNTVYLQMNSLKPEDTAVYYCAADVITRGVKYLGQVAYEYWGQGTQVTVSS,low polyreactivity
12,QVQLVESGGGLVQAGGSLRLSCAASGSIFAVNAMGWYRQAPGKERELVAAISWRDTGTYYADSVKGRFTISRDNAKNTVYLQMNSLKPEDTAVYYCAADAQVNPYYPDEYWGQGTQVTVSS,low polyreactivity
13,QVQLVESGGGLVQAGGSLRLSCAASGSIFAVYAMGRYRPAPGKERELVAASSTDYADSVKGRVTISRDNAKNTVYLQMNSLKPEDTAVYYCAKVGFGIPGGFYYWGHGTQVTVSS,low polyreactivity
14,QVQLVESGGGLVQAGGSLRLSCAASGSIFAVYAMGWYRQAPGNERELVAVITRSGGSTYYADSVKGRFTISRDNAKNTVYLQMNSLKPEDTAVYYCAARTGYGYTRYEYWGQGTQVTVSS,high polyreactivity
15,QVQLVESGGGLVQAGGSLRLSCAASGSIFAWYAMGWYRQAPGKERELVATITWSGGSTYYADSVKGRFTITRDNAKNTVYLQINSLKPEDTAVYYCAAEVVGIWYDLWYQGDYWGQGTQVTVSS,low polyreactivity
16,QVQLVESGGGLVQAGGSLRLSCAASGSIFAYNAMGWYRQAPGKEREFVAAISLSGGRTYYADSVKGRFTISRDNAKNTVYLQMNSLKPEDTAVYYCATDGIRLTRHRDYDYWGQGTQVTVSS,low polyreactivity
17,QVQLVESGGGLVQAGGSLRLSCAASGSIFAYNAMGWYRQAPGKEREFVAAISQCGGRTYYADSVKGRFTISRDNAKTTVYLQMNSLKPEDTAVYYCATDGIRLTRHRDYDYWGQGTQVTVSS,low polyreactivity
18,QVQLVESGGGLVQAGGSLRLSCAASGSIFAYNTMGWYRQAPGKERELVAAITGRAGSTYYADSVKGRFTISRDNAKNTVYLQMNSLKPEDTAVYYCNAPTWVRGGYDYWGQGTQVTVSS,high polyreactivity
19,QVQLVESGGGLVQAGGSLRLSCAASGSIFAYNVMGWYRQAPGKEREFVAAISSGGRTTYADSVKGPFTISRDNAKNTVYLQMNSLKAEDTAVYYFNAYFLVHYRRLRPYEYWGQGTQVTVSS,low polyreactivity
20,QVQLVESGGGLVQAGGSLRLSCAASGSIFAYYAMGRNRQAPGKERELVAAITFSGVSTYYADSVKGRFTISRDNAKNTVYLQMNILKPEDTAVYYCAADPYQNYWWWYDYWGQGTQVTVSS,low polyreactivity
21,QVQLVESGGGLVQAGGSLRLSCAASGSIFAYYAMGWYRQAPGKERELVAAISRRAGTTYYADSVKGRFTISRDNAKNTVYLQMNSLKPEDTAVYYCAKVSSVWYPRVDYWGQGTQVTVSS,low polyreactivity
22,QVQLVESGGGLVQAGGSLRLSCAASGSIFAYYAMGWYRQAPGKERELVAAISRSGVSTYYADSVKGRFTISRDNAKNTVYLQMNSLKPEDTAVYYCAARWRSGFTSGDYWGQGTQVTVSS,low polyreactivity

row,Sequence,polyreactivity (PSR sort gate)
1,QVQLVESGGGLVQAGGSLRLSCAASGSIFAYYAMGWYRQPPGKERELVAAISYSVDGTYYADSVKGRFTISRDNAYNTVYLQMNSLKPEDTAVYYCATQIYPLDFYQGDWNDYWGQGTQVTVSS,low polyreactivity
2,QVQLVESGGGLVQAGGSLRLSCAASGSIFAYYTMGWSRQAPGKERELVAAITSGGSTNYADSVKGRFTISRDNAKNTVYLQMNSLKPEDTAVYYCAVQGSRYSYRYGYRFRTMDYWGQGTQVTVSS,high polyreactivity
3,QVQLVESGGGLVQAGGSLRLSCAASGSIFAYYTMGWSRQAPGKERELVATISSRGGSTNYADSVKGRFTISRDNAKNTVYLQMNSLKPEDTAVYYCNTAGAADRRRAYDHDYWGQGTQVTVSS,high polyreactivity
4,QVQLVESGGGLVQAGGSLRLSCAASGSIFDDYAMGWSRQAPGKERELVAASSGGVSTNYADSVKGRFTISRDNAKNTVYLQMNSLKPEDTAVYYCNADYAGAYIHDYWGKGTQVTVSS,low polyreactivity
5,QVQLVESGGGLVQAGGSLRLSCAASGSIFDDYAMGWYRQAPGKERELVAAISWSGGRTYYADSVKGRFTISRDNAKTTVYLQMNSLKPEDTAVYDCAATTGVRSRRYYYWGQGTQVTVSS,low polyreactivity
6,QVQLVESGGGLVQAGGSLRLSCAASGSIFDDYAMGWYRQAPGKERELVAAITTGGGRTYYADSVKGRFTISRDNAKNTVYLQMNSLKPEDTAVYYCNAKAVRGYGTWRDGSISYGMDYWGQGTQVTVSS,high polyreactivity
7,QVQLVESGGGLVQAGGSLRLSCAASGSIFDDYAMGWYRQAPGKERELVAAMSWSGGRTYYADSVKGRFTISRDYAKNTVYLQMNSLNPEDTAVYYCAATTGVRSRRYYYWGQGTLVTVSS,low polyreactivity
8,QVQLVESGGGLVQAGGSLRLSCAASGSIFDDYAMGWYRQAPGNERELVAAITSGGSTYYADSVKGRFTISRDNAKNTVYLQMNSLKPEDTAVYYWAAPENKSDEYDYWGQGTQVTVSS,low polyreactivity
9,QVQLVESGGGLVQAGGSLRLSCAASGSIFDENAMGWYRQAPGKERELVAAITGSGVRTYYADSVKGRFTISRDNAKNTVYLQMNSLKPEDTAVYYCNRVKSGSYKFGYWGQGTQVTVSS,high polyreactivity
10,QVQLVESGGGLVQAGGSLRLSCAASGSIFDFYAMGWYRQAPGKERELVAAISWSGGNTYYADSVKGRFTISRDNAKNTVYLQMNSLKPEDTAVYYCNRGSIWRLLTGDFDYWGQGTQVTVSS,low polyreactivity
11,QVQLVESGGGLVQAGGSLRLSCAASGSIFDGNAMGWYRKATGKERELVAAITNSGGSTYYADSVNGRFTISPENAMNSVYLQKNSLKPEDTAVYYCNALPFAWRRYRWLRTMYYWGQGTQVTVSS,low polyreactivity
12,QVQLVESGGGLVQAGGSLRLSCAASGSIFDGNGMGWSRQAPGKERELVASISGDGSTNYADSVKGRFTISRDNAKNTVYLQMNSLKPEDTAVYYCATDDPLSQINEQGMDYWGQGTQVTVSS,low polyreactivity
13,QVQLVESGGGLVQAGGSLRLSCAASGSIFDGYGMGWSRQAPGKERELVAGITSGGSTYYADSVKGRFTISRDNAKNTVYLQMNSLKPEDTAVYYCATVVRYSNARGDYWGQGTQVTVSS,low polyreactivity
14,QVQLVESGGGLVQAGGSLRLSCAASGSIFDIYAMGWYRQAPGKERELVAAISLSAGSTYYADSVKGRFTISRDNAKNTVYLQMNSLKPEDTAVYYCAKDFFEHSPVSHTYSSSKYDYWGQGTQVTVSS,low polyreactivity
15,QVQLVESGGGLVQAGGSLRLSCAASGSIFDIYGMGWYRQAPGKERELVASISGGAGSTNYADSVKGRFTISRDTAKNTVYLQMNWLKPEDTAVYYCAAEVYVPDYFQHKFDVEYEYWGQGTQVTVSS,low polyreactivity
16,QVQLVESGGGLVQAGGSLRLSCAASGSIFDLYAMGWYRQAPGKERELVAGISYSGGSTYYADSVKGRFTISRDNAKNTVYLQMNSLKPEDTAVYHCADDGGWRYHPFSSLFDYWGQGTQVTVSS,low polyreactivity
17,QVQLVESGGGLVQAGGSLRLSCAASGSIFDNAMGWYRQAPGKERELVASIDQSGGSTYYADSVMGRFTISRDNAKNTVYLQMNSLKPEDTAVYYCAADSFTGYPYEMDYWGQGTQVTVSS,low polyreactivity
18,QVQLVESGGGLVQAGGSLRLSCAASGSIFDNNAMGWYRQSPGKEREFVAAISWIGGSTSYADSVKGRFTISSDNAKNTVYLQMNSLKPEDTAVYYCNSLRYYPYGLPIYDYWGQGTQVTVSS,low polyreactivity
19,QVQLVESGGGLVQAGGSLRLSCAASGSIFDNYALGWYRQAPGKERELVAAISWNGGDTTYADSVKGRFTISRDNAKNTVYLQMNSLKPEDTAVYYCAADLGYWVADFYWGQGTQVTVSS,high polyreactivity
20,QVQLVESGGGLVQAGGSLRLSCAASGSIFDPYAKGWYRQAPGKEREFVAAITGSGGSTSYADSVKGRFTISRDNAKNTVYLQMNSLKPEDTAVYYCAARRTVEWGQGTQVTVSS,high polyreactivity
21,QVQLVESGGGLVQAGGSLRLSCAASGSIFDPYAMGWYRQAPGKERELVAAITASGSSTYYADSVKGRFTISRDNAKNTVYLQMYSLKPEDTAVYYCAADRANWEYLLSWLGYDYWGQGTQVTVSS,low polyreactivity
